Sequences and labels used below:
T1: Human GHR-Fc-10x His (extracellular region of human growth hormone receptor fused to human Fc) (human, UniProt P10912 50-256)
T1 construct: Captured by its 10x His-tag on a Ni-NTA sensor chip for SPR; not shown: human Fc domain of vector pAB1200 with its linker; 10x His-tag replacing the AviTag
T1 sequence (looked up): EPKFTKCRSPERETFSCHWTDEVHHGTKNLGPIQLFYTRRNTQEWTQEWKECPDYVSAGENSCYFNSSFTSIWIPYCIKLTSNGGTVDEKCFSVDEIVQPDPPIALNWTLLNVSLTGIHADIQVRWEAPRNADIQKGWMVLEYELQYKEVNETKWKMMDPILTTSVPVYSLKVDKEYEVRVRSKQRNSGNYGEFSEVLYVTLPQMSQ

B1: GHR11 Fab (Fab, V domains shown)
VH: EVQLVESGGGLVQPGGSLRLSCAASGFNLSYYYIHWVRQAPGKGLEWVASIYSSSGYTYYADSVKGRFTISADTSKNTAYLQMNSLRAEDTAVYYCARQYPYSWSSYGFSSGALDYWGQGTLVTVSS
VL: DIQMTQSPSSLSASVGDRVTITCRASQSVSSAVAWYQQKPGKAPKLLIYSASSLYSGVPSRFSGSRSGTDFTLTISSLQPEDFATYYCQQYFAYYSPITFGQGTKVEIKR
notes: Fab
B2: GHR2 Fab (Fab, V domains shown)
VH: EVQLVESGGGLVQPGGSLRLSCAASGFNLYYSSIHWVRQAPGKGLEWVAYISPSYGSTSYADSVKGRFTISADTSKNTAYLQMNSLRAEDTAVYYCARYYDYSWPWYWHGGGPAFDYWGQGTLVTVSS
VL: DIQMTQSPSSLSASVGDRVTITCRASQSVSSAVAWYQQKPGKAPKLLIYSASSLYSGVPSRFSGSRSGTDFTLTISSLQPEDFATYYCQQYEEYPLITFGQGTKVEIKR
notes: Fab
B3: GHR10 Fab (Fab, V domains shown)
VH: EVQLVESGGGLVQPGGSLRLSCAASGFNFSYYSIHWVRQAPGKGLEWVASISSYYGSTSYADSVKGRFTISADTSKNTAYLQMNSLRAEDTAVYYCARTEYSFGMYWAHTGMDYWGQGTLVTVSS
VL: B2 VL with Y91F, E92W, E93S, Y94S, P95E, L96P
notes: Fab
B4: GHR5 Fab (Fab, V domains shown)
VH: EVQLVESGGGLVQPGGSLRLSCAASGFNVSYYSIHWVRQAPGKGLEWVAYISPSSGSTSYADSVKGRFTISADTSKNTAYLQMNSLRAEDTAVYYCARMYWQGGYSSYWQSYAMDYWGQGTLVTVSS
VL: B2 VL with Y91K, E92S, E93Q, P95S, I97V
notes: Fab
B5: GHR6 Fab (Fab, V domains shown)
VH: EVQLVESGGGLVQPGGSLRLSCAASGFNVYYSSIHWVRQAPGKGLEWVASIYSSYGYTSYADSVKGRFTISADTSKNTAYLQMNSLRAEDTAVYYCARGQWSGLSGYWEYKALDYWGQGTLVTVSS
VL: B2 VL with Y91V, E92G, E93G, Y94S, P95S
notes: Fab
B6: GHR9 Fab (Fab, V domains shown)
VH: EVQLVESGGGLVQPGGSLRLSCAASGFNVSYSSIHWVRQAPGKGLEWVASISSSYGSTYYADSVKGRFTISADTSKNTAYLQMNSLRAEDTAVYYCARYYDYSWSTYKGIGTGAIDYWGQGTLVTVSS
VL: B2 VL with E92W, E93Y, Y94S, P95Y
notes: Fab
B7: GHR14 Fab (Fab, V domains shown)
VH: EVQLVESGGGLVQPGGSLRLSCAASGFNISSSYIHWVRQAPGKGLEWVASISSYYGYTSYADSVKGRFTISADTSKNTAYLQMNSLRAEDTAVYYCARSYGSYYGYYHYWEWYGLDYWGQGTLVTVSS
VL: B2 VL with Y91W, E92Q, E93Y, Y94W, P95S, L96P, I97V
notes: Fab
B8: GHR1 Fab (Fab, V domains shown)
VH: EVQLVESGGGLVQPGGSLRLSCAASGFNVSYSSIHWVRQAPGKGLEWVAYIYSSYGSTYYADSVKGRFTISADTSKNTAYLQMNSLRAEDTAVYYCAREYWPYYSQTGGSAMDYWGQGTLVTVSS
VL: DIQMTQSPSSLSASVGDRVTITCRASQSVSSAVAWYQQKPGKAPKLLIYSASSLYSGVPSRFSGSRSGTDFTLTISSLQPEDFATYYCQQSMHPLITFGQGTKVEIKR
notes: Synthetic human Fab from phage display, expressed in E. coli
B9: GHR7 Fab (Fab, V domains shown)
VH: EVQLVESGGGLVQPGGSLRLSCAASGFNFSYSSIHWVRQAPGKGLEWVAYISSYYGYTSYADSVKGRFTISADTSKNTAYLQMNSLRAEDTAVYYCARLQHPSWYYYQGYHSGMDYWGQGTLVTVSS
VL: B8 VL with S91Y, M92W, H93S, P94S
notes: Fab
B10: GHR4 Fab (Fab, V domains shown)
VH: EVQLVESGGGLVQPGGSLRLSCAASGFNVYYSYIHWVRQAPGKGLEWVAYISPYSGSTSYADSVKGRFTISADTSKNTAYLQMNSLRAEDTAVYYCARQEWYAFDYWGQGTLVTVSS
VL: B8 VL with S91Y, M92W, H93S, P94Y
notes: Fab; also called FAB4
B11: GHR3 Fab (Fab, V domains shown)
VH: EVQLVESGGGLVQPGGSLRLSCAASGFNVSYYSIHWVRQAPGKGLEWVAYISPSYGSTSYADSVKGRFTISADTSKNTAYLQMNSLRAEDTAVYYCARGYWGGGYWPYHAFDYWGQGTLVTVSS
VL: B8 VL with S91Y, M92Y, H93T, P94S, I96L
notes: Fab
B12: GHR12 Fab (Fab, V domains shown)
VH: EVQLVESGGGLVQPGGSLRLSCAASGFNVSYYSIHWVRQAPGKGLEWVASIYSSYGSTYYADSVKGRFTISADTSKNTAYLQMNSLRAEDTAVYYCARGYWQGGYYRWGNGGLDYWGQGTLVTVSS
VL: B8 VL with M92Y, H93G, P94W
notes: Fab
B13: GHR13 Fab (Fab, V domains shown)
VH: EVQLVESGGGLVQPGGSLRLSCAASGFNVYYSSIHWVRQAPGKGLEWVAYIYPSSGSTSYADSVKGRFTISADTSKNTAYLQMNSLRAEDTAVYYCARSWQWYYPGWEQYGWYGMDYWGQGTLVTVSS
VL: B8 VL with M92G, H93G, P94S, I96V
notes: Fab
B14: GHR8 Fab (Fab, V domains shown)
VH: EVQLVESGGGLVQPGGSLRLSCAASGFNISYSSIHWVRQAPGKGLEWVASIYSSYGSTYYADSVKGRFTISADTSKNTAYLQMNSLRAEDTAVYYCARSYIYSQPGFYYDSYALDYWGQGTLVTVSS
VL: B8 VL with S91Y, M92G, H93S, P94W
notes: Fab

Changes are numbered by the printed parent chain.

The target of the experiment is T1, Human GHR-Fc-10x His (extracellular …). In words: SPR, GHR-Fc-10xHis captured on Ni-NTA chip, Fab as analyte, 1:1 fit. How it is done:
Surface plasmon resonance (SPR) measurements were conducted in a MASS-1 (Bruker) instrument. The target GHR-Fc (50 nM) with a 10× His-tag was captured in a Ni-NTA sensor chip. […] Flow rate was 30 ul/min and temperature 20° C. Sensograms were corrected through double referencing and fitting was done with a 1:1 binding model using the Sierra Analyzer (Bruker). For epitope binning experiments, the first FAB was injected at saturating concentrations (200 nM), followed by injection a second FAB in equal molar mixture with the first FAB, and the response unit (RU) was recorded.
Target GHR_Fc (from different species) were immobilized via a 10× His-tag to a Ni-NTA sensor chip. […] Sensograms were corrected through double referencing and 1:1 binding model fit was done using Sierra Analyzer (Bruker). To reveal different epitopes on GHR, the epitope binning experiment was performed.
The molecule B1 displayed a Kd of 1.3 nM, a dissociation rate constant (koff) of 0.000587 s⁻¹ and a kon of 451000 M⁻¹ s⁻¹.
Consider B2, for which the Kd is 16.8 nM, the koff worked out at 0.000873 s⁻¹ and the kon is 51200 M⁻¹ s⁻¹.
The corresponding values for B3 are 1.51 nM, 0.000642 s⁻¹ and 425000 M⁻¹ s⁻¹.
The corresponding values for B4 are 15.5 nM, 0.00211 s⁻¹ and 136000 M⁻¹ s⁻¹.
In turn, B5 came in with a Kd of 1.89 nM, a koff of 0.000296 s⁻¹ and a kon of 156000 M⁻¹ s⁻¹.
The molecule B6 gave a dissociation constant Kd below 1 nM, a koff of 0.00012 s⁻¹ and an on-rate (kon) of 238000 M⁻¹ s⁻¹.
For B7 the same measures were 7.15 nM, 0.00127 s⁻¹ and 177000 M⁻¹ s⁻¹.
For the molecule B8, the dissociation constant (Kd) was 6.29 nM, the koff is 0.000336 s⁻¹ and the kon amounted to 53400 M⁻¹ s⁻¹.
B9 yielded a Kd of 2.21 nM, a koff of 0.00129 s⁻¹ and an on-rate constant (kon) of 587000 M⁻¹ s⁻¹.
Molecule B10 registered a dissociation constant Kd of 1.9 nM, a koff of 0.000992 s⁻¹ and a kon of 522000 M⁻¹ s⁻¹.
For B11 the same measures were below 1 nM, 1.32e-06 s⁻¹ and 405000 M⁻¹ s⁻¹.
With B12, the Kd was below 1 nM, the koff was 0.000168 s⁻¹ and the on-rate (kon) was found to be 536000 M⁻¹ s⁻¹.
The molecule B13 registered a dissociation constant (Kd) of 2.84 nM, a koff of 0.00053 s⁻¹ and a kon of 187000 M⁻¹ s⁻¹.
The corresponding values for B14 are 3.23 nM, 0.000505 s⁻¹ and 156000 M⁻¹ s⁻¹.

What is called Kd is the equilibrium constant for the complex coming apart. A higher Kd goes with weaker binding. What is called koff is the rate constant with which the complex falls apart. Lower therefore signals a long-lived complex. As a reminder, the kon is the rate constant with which the complex forms. High values mean faster complex formation, low ones slower complex formation.

Values taken from patent US20250179200A1 (UNIVERSITY OF CHICAGO, published 2025).
